Assay [1] deals with reaction center-light harvesting 1-PufX (RC-LH1-PufX) complex (Rhodobacter sphaeroides) (UniProt P0C0Y7). Briefly: atomic force microscopy; tapping mode AFM of intact native chromatophore vesicles immobilised on mica; imaging buffer 300 mM KCl/20 mM MOPS pH 7.4, with and without 10 mM MgCl2; proteins in their native membrane.
For assay [2], the target named is subunit of the light-harvesting 2 (LH2) complex (Rhodobacter sphaeroides). Described as above.
For assay [3] the target is unchanged. Briefly: atomic force microscopy; tapping mode AFM of reconstituted flat LH2 membranes (2D crystals) immobilised on a mica substrate, same approach as for chromatophores.
The target is the same in assay [4]. The description is as above. This is another data set of the same source.
Assay [5] has the same target. The assay can be described thus: atomic force microscopy; tapping mode AFM of intact native chromatophore vesicles immobilised on mica; imaging buffer 300 mM KCl/20 mM MOPS pH 7.4, with and without 10 mM MgCl2; proteins in their native membrane. The source holds these as a separate data set.

Usually stoichiometry N stands for the number of molecules, sites or subunits per partner or assembly. Substance “reaction center-light harvesting 1-PufX (RC-LH1-PufX) complex (from UniProt P0C0Y7 1-260; P13402 1-82)” showed a stoichiometry N in assay [1] of 2.

On to “subunit of the light-harvesting 2 (LH2) complex”, for which the stoichiometry N in assay [2] turned out to be 9; in assay [3] it was 8.3; in assay [4], 9; in assay [5] it was 8.6.

(Values after PMC5269641.)
